Test results from the supplement of paper PMC6757056.
± gives the standard deviation of the averaged measurements.

B1: library; a variant is named by its letters at N, in order (parent)
chain: GCUGUCACCGGUGCUUGGUACGUUAUAUUCAGCCGGUCUGAUGAGUCUNNNNNNAGACGAAACAGC

Key:
[1] = variants of: B1; assay: normalized RNA/DNA level without ligand (relative to sTRSVctl = 100) (log10 (% of sTRSVctl)); HEK293T overexpressing SLC46A1; higher = less ribozyme self-cleavage, higher mRNA level; conditions: without (6R,S)-folinic acid; ligand present: no
Method in brief: (§1)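 Total RNA, extracted with EDTA 72 h after HEK293T cells were transfected with 4 µg per 6-well well of reporter-linked ribozyme switch library plasmids, was reverse-transcribed, amplified, barcoded and sequenced. Ligand, if used, was added 1 h before transfection. RNA level was derived from RNA reads divided by DNA reads and normalized to a spiked-in non-cleaving sequence or to the top sequences. This was multiplied by 100 and log10-transformed, with the top set of 25 sequences and a ≥100 DNA read minimum.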

[2] = variants of: B1; assay: normalized RNA/DNA level with ligand (relative to sTRSVctl = 100) (log10 (% of sTRSVctl)); HEK293T overexpressing SLC46A1; ligand concentration (+) RNA-Seq: 6 mM; higher = less ribozyme self-cleavage, higher mRNA level; conditions: with (6R,S)-folinic acid; ligand present: yes
Method in brief: as §1

| Variant | normalized RNA/DNA level without ligand (log10) [1] | normalized RNA/DNA level with ligand (log10) [2] |
| --- | --- | --- |
| AGACGU | 1.976 ± 0.0062 | 2.01 ± 0.026 |
| GGCAAG | 2.034 ± 0.007 | 2.003 ± 0.017 |
| GGCAAU | 2.057 ± 0.01 | 2.04 ± 0.03 |
| GGCAAC | 2.057 ± 0.0039 | 2.04 ± 0.0099 |
| GGCAAA | 2.069 ± 0.0036 | 2.04 ± 0.044 |
| GGAUGU | 1.972 ± 0.0047 | 2.03 ± 0.052 |
| GGAUGC | 1.912 ± 0.002 | 1.962 ± 0.015 |
| GGAUGA | 2.024 ± 0.02 | 2.058 ± 0.0075 |
| GGAUGG | 1.948 ± 0.012 | 2.02 ± 0.033 |
| UGACGU | 1.97 ± 0.03 | 2.02 ± 0.023 |
| CGAGAC | 1.947 ± 0.015 | 1.974 ± 0.012 |
| CGAGAU | 1.957 ± 0.011 | 1.99 ± 0.025 |
| CGAGAG | 1.964 ± 0.015 | 1.964 ± 0.0059 |
| GGCACG | 2.047 ± 0.014 | 2.03 ± 0.038 |
| GGCACA | 2.085 ± 0.009 | 2.03 ± 0.031 |
| GGAAGU | 1.978 ± 0.0031 | 2.01 ± 0.032 |
| AGAUUG | 1.89 ± 0.014 | 2.004 ± 0.018 |
| AGAUUU | 2.0581 ± 0.0011 | 2.04 ± 0.024 |
| AGCAAU | 1.995 ± 0.0032 | 2.01 ± 0.033 |
| AGCAAG | 1.935 ± 0.0032 | 2.01 ± 0.025 |

| Variant | normalized RNA/DNA level without ligand (log10) [1] | normalized RNA/DNA level with ligand (log10) [2] |
| --- | --- | --- |
| AGCAAC | 2.004 ± 0.0095 | 2.01 ± 0.038 |
| UGAGCA | 1.95 ± 0.014 | 2.0212 ± 0.00076 |
| UGAGCC | 2.038 ± 0.0055 | 2.04 ± 0.041 |
| AGCAUU | 2.012 ± 0.0048 | 2.01 ± 0.028 |
| AGCAUG | 1.957 ± 0.004 | 2.03 ± 0.018 |
| AGCAUC | 2.082 ± 0.012 | 2.0495 ± 0.0016 |
| AGCAUA | 1.985 ± 0.014 | 2.017 ± 0.016 |
| AGAGUU | 2.002 ± 0.0079 | 2.011 ± 0.0021 |
| AGAGUA | 1.94 ± 0.0059 | 2.01 ± 0.033 |
| AGAGUG | 1.71 ± 0.035 | 1.98 ± 0.039 |
| AGAGUC | 2.059 ± 0.0045 | 2.02 ± 0.034 |
| GGAGGA | 1.975 ± 0.0041 | 2.01 ± 0.046 |
| GGAGGG | 1.98 ± 0.028 | 2.04 ± 0.046 |
| AGAUGU | 1.971 ± 0.0095 | 2.02 ± 0.036 |
| AGAUGC | 2.017 ± 0.0026 | 2.03 ± 0.021 |
| UGACUU | 2.006 ± 0.014 | 2.017 ± 0.015 |
| UGACUA | 1.963 ± 0.0017 | 2.0143 ± 0.0019 |
| UGACUC | 2.075 ± 0.011 | 2.042 ± 0.0068 |
| GGACAU | 2.018 ± 0.011 | 2.011 ± 0.016 |
| GGACAC | 2.013 ± 0.013 | 2.03 ± 0.039 |

| Variant | normalized RNA/DNA level without ligand (log10) [1] | normalized RNA/DNA level with ligand (log10) [2] |
| --- | --- | --- |
| GGACAG | 1.954 ± 0.0092 | 1.99 ± 0.052 |
| CGCAUC | 2.08 ± 0.021 | 1.97 ± 0.036 |
| CGCAUG | 2.01 ± 0.019 | 2.01 ± 0.022 |
| CGCCGC | 2.062 ± 0.0024 | 2.03 ± 0.047 |
| CGCCGA | 2.027 ± 0.0027 | 2.08 ± 0.044 |
| UGAUCU | 1.995 ± 0.012 | 2.04 ± 0.091 |
| UGAUCC | 2.059 ± 0.012 | 2.03 ± 0.049 |
| UGAUCA | 1.99 ± 0.021 | 2 ± 0.038 |
| CGAUUU | 1.984 ± 0.0069 | 2 ± 0.026 |
| CGAUUG | 2.028 ± 0.018 | 2.02 ± 0.035 |
| CGAUUC | 2.089 ± 0.019 | 2.08 ± 0.048 |
| CGAUUA | 1.958 ± 0.017 | 1.992 ± 0.013 |
| GGAAUA | 2.022 ± 0.0049 | 2.04 ± 0.04 |
| UGAGAC | 1.912 ± 0.011 | 1.98 ± 0.028 |
| UGCACA | 1.97 ± 0.024 | 2.01 ± 0.036 |
| UGCACG | 1.8081 ± 0.0015 | 1.977 ± 0.013 |
| UGCACU | 2.017 ± 0.0058 | 2.04 ± 0.033 |
| UGCACC | 2.036 ± 0.0046 | 1.98 ± 0.028 |
